Data set [1] deals with HeLa Kyoto. The experiment in a line: thermal stability score vs G1/S (z-score of summed log2 fold changes over temperatures); higher = more thermally stable than in G1/S.
Data set [2] relates to HeLa Kyoto. The experiment in a line: solubility in G1/S (NP-40 vs SDS abundance) (log2 ratio); higher = more soluble. As to conditions: cell cycle stage: G1/S.
The subject of data set [3] is HeLa Kyoto. The experiment in a line: melting temperature (median over replicates), in situ; higher = more thermally stable.
The test system of data set [4] is HeLa Kyoto. Description: solubility change mitosis vs G1/S (difference of NP-40 vs SDS log2 ratios) (log2 ratio difference); higher = more soluble in mitosis.
[5] abbreviates: cell cycle stage: early G1 (4.5 h after nocodazole release).
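Throughout, for melting temperature (median over replicates), in situ: HeLa Kyoto cells synchronized by double thymidine or nocodazole block, proteins quantified by TMT10plex mass spectrometry, three independent biological replicates.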
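Throughout, for solubility change mitosis vs G1/S (difference of NP-40 vs SDS log2 ratios): synchronized HeLa Kyoto cells (double thymidine block for G1/S, nocodazole release for mitosis), protein amounts in NP-40 versus SDS lysates quantified by mass spectrometry, three biological replicates.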
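Throughout, for solubility in G1/S (NP-40 vs SDS abundance): HeLa Kyoto cells arrested at G1/S by double thymidine block, proteins quantified by TMT10plex mass spectrometry in mild NP-40 versus SDS extracts, three biological replicates.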
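Throughout, for thermal stability score vs G1/S (z-score of summed log2 fold changes over temperatures): synchronized HeLa Kyoto cells, proteins quantified by TMT10plex mass spectrometry, three biological replicates, mitosis taken 0.5 h after nocodazole release, G1/S directly after double thymidine block.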

Regarding “MRGFGPGLTARRLLPLRLPPRPPGPRLASGQAAGALERAMDELLRRAVPPTPAYELREKTPAPAEGQCADFVSFYGGLAETAQRAELLGRLARGFGVDHGQVAEQSAGVLHLRQQQREAAVLLQAEDRLRYALVPRYRGLFHHISKLDGGVRFLVQLRADLLEAQALKLVEGPDVREMNGVLKGMLSEWFSSGFLNLERVTWHSPCEVLQKISEAEAVHPVKNWMDMKRRVGPYRRCYFFSHCSTPGEPLVVLHVALTGDISSNIQAIVKEHPPSETEEKNKITAAIFYSISLTQQGLQGVELGTFLIKRVVKELQREFPHLGVFSSLSPIPGFTKWLLGLLNSQTKEHGRNELFTDSECKEISEITGGPINETLKLLLSSSEWVQSEKLVRALQTPLMRLCAWYLYGEKHRGYALNPVANFHLQNGAVLWRINWMADVSLRGITGSCGLMANYRYFLEETGPNSTSYLGSKIIKASEQVLSLVAQFQKNSKL [MLYCD]”, the thermal stability score in the data set on HeLa Kyoto [1] (setting [5]) was -0.712; in the data set on HeLa Kyoto [1] (cell cycle stage: mitosis), -1.19. In addition, the “solubility in G1/S (log2)” value with HeLa Kyoto [2] turned out to be 0.0216. Besides, the melting temperature worked out at 52.7 °C in the data set with HeLa Kyoto [3] (cell cycle stage: G1/S) and 54.3 °C with HeLa Kyoto [3] (cell cycle stage: mitosis). The “solubility change mitosis (log2)” value in the data set on HeLa Kyoto [4] was -0.194.

With “MRGPPAWPLRLLEPPSPAEPGRLLPVACVWAAASRVPGSLSPFTGLRPARLWGAGPALLWGVGAARRWRSGCRGGGPGASRGVLGLARLLGLWARGPGSCRCGAFAGPGAPRLPRARFPGGPAAAAWAGDEAWRRGPAAPPGDKGRLRPAAAGLPEARKLLGLAYPERRRLAAAVGFLTMSSVISMSAPFFLGKIIDVIYTNPTVDYSDNLTRLCLGLSAVFLCGAAANAIRVYLMQTSGQRIVNRLRTSLFSSILRQEVAFFDKTRTGELINRLSSDTALLGRSVTENLSDGLRAGAQASVGISMMFFVSPNLATFVLSVVPPVSIIAVIYGRYLRKLTKVTQDSLAQATQLAEERIGNVRTVRAFGKEMTEIEKYASKVDHVMQLARKEAFARAGFFGATGLSGNLIVLSVLYKGGLLMGSAHMTVGELSSFLMYAFWVGISIGGLSSFYSELMKGLGAGGRLWELLEREPKLPFNEGVILNEKSFQGALEFKNVHFAYPARPEVPIFQDFSLSIPSGSVTALVGPSGSGKSTVLSLLLRLYDPASGTISLDGHDIRQLNPVWLRSKIGTVSQEPILFSCSIAENIAYGADDPSSVTAEEIQRVAEVANAVAFIRNFPQGFNTVVGEKGVLLSGGQKQRIAIARALLKNPKILLLDEATSALDAENEYLVQEALDRLMDGRTVLVIAHRLSTIKNANMVAVLDQGKITEYGKHEELLSKPNGIYRKLMNKQSFISA [ABCB10]”, the thermal stability score with HeLa Kyoto [1] (setting [5]) was 0.476; in the data set on HeLa Kyoto [1] (cell cycle stage: mitosis) it was -0.874. The “solubility in G1/S (log2)” value with HeLa Kyoto [2] is -0.0973. Besides, the melting temperature was 53.8 °C in the data set on HeLa Kyoto [3] (cell cycle stage: G1/S) and 54 °C with HeLa Kyoto [3] (cell cycle stage: mitosis). Further, the “solubility change mitosis (log2)” value in the data set with HeLa Kyoto [4] was -0.029.

For “MRKPDSKIVLLGDMNVGKTSLLQRYMERRFPDTVSTVGGAFYLKQWRSYNISIWDTAGREQFHGLGSMYCRGAAAIILTYDVNHRQSLVELEDRFLGLTDTASKDCLFAIVGNKVDLTEEGALAGQEKEECSPNMDAGDRVSPRAPKQVQLEDAVALYKKILKYKMLDEQDVPAAEQMCFETSAKTGYNVDLLFETLFDLVVPMILQQRAERPSHTVDISSHKPPKRTRSGCCA [RAB20]”, the thermal stability score worked out at 3.91 in the data set with HeLa Kyoto [1] (setting [5]) and 1.44 with HeLa Kyoto [1] (cell cycle stage: mitosis). Moreover, the “solubility in G1/S (log2)” value in the data set with HeLa Kyoto [2] was 0.0752. The melting temperature with HeLa Kyoto [3] (cell cycle stage: G1/S) stood at 54.4 °C; with HeLa Kyoto [3] (cell cycle stage: mitosis), 53.8 °C. For the same sequence, the “solubility change mitosis (log2)” value with HeLa Kyoto [4] was -0.187.

Turning to “MRKVVLITGASSGIGLALCKRLLAEDDELHLCLACRNMSKAEAVCAALLASHPTAEVTIVQVDVSNLQSVFRASKELKQRFQRLDCIYLNAGIMPNPQLNIKALFFGLFSRKVIHMFSTAEGLLTQGDKITADGLQEVFETNVFGHFILIRELEPLLCHSDNPSQLIWTSSRSARKSNFSLEDFQHSKGKEPYSSSKYATDLLSVALNRNFNQQGLYSNVACPGTALTNLTYGILPPFIWTLLMPAILLLRFFANAFTLTPYNGTEALVWLFHQKPESLNPLIKYLSATTGFGRNYIMTQKMDLDEDTAEKFYQKLLELEKHIRVTIQKTDNQARLSGSCL [HSD17B7]”, the thermal stability score was -1.29 with HeLa Kyoto [1] (setting [5]) and -0.53 in the data set with HeLa Kyoto [1] (cell cycle stage: mitosis). For the same sequence, in the data set with HeLa Kyoto [2], the “solubility in G1/S (log2)” value is -0.113. For the same sequence, the melting temperature is 52.8 °C with HeLa Kyoto [3] (cell cycle stage: G1/S) and 51 °C in the data set with HeLa Kyoto [3] (cell cycle stage: mitosis). For the same sequence, the “solubility change mitosis (log2)” value in the data set on HeLa Kyoto [4] was -0.161.

“MRLALLWALGLLGAGSPLPSWPLPNIGGTEEQQAESEKAPREPLEPQVLQDDLPISLKKVLQTSLPEPLRIKLELDGDSHILELLQNRELVPGRPTLVWYQPDGTRVVSEGHTLENCCYQGRVRGYAGSWVSICTCSGLRGLVVLTPERSYTLEQGPGDLQGPPIISRIQDLHLPGHTCALSWRESVHTQKPPEHPLGQRHIRRRRDVVTETKTVELVIVADHSEAQKYRDFQHLLNRTLEVALLLDTFFRPLNVRVALVGLEAWTQRDLVEISPNPAVTLENFLHWRRAHLLPRLPHDSAQLVTGTSFSGPTVGMAIQNSICSPDFSGGVNMDHSTSILGVASSIAHELGHSLGLDHDLPGNSCPCPGPAPAKTCIMEASTDFLPGLNFSNCSRRALEKALLDGMGSCLFERLPSLPPMAAFCGNMFVEPGEQCDCGFLDDCVDPCCDSLTCQLRPGAQCASDGPCCQNCQLRPSGWQCRPTRGDCDLPEFCPGDSSQCPPDVSLGDGEPCAGGQAVCMHGRCASYAQQCQSLWGPGAQPAAPLCLQTANTRGNAFGSCGRNPSGSYVSCTPRDAICGQLQCQTGRTQPLLGSIRDLLWETIDVNGTELNCSWVHLDLGSDVAQPLLTLPGTACGPGLVCIDHRCQRVDLLGAQECRSKCHGHGVCDSNRHCYCEEGWAPPDCTTQLKATSSLTTGLLLSLLVLLVLVMLGASYWYRARLHQRLCQLKGPTCQYRAAQSGPSERPGPPQRALLARGTKQASALSFPAPPSRPLPPDPVSKRLQAELADRPNPPTRPLPADPVVRSPKSQGPAKPPPPRKPLPADPQGRCPSGDLPGPGAGIPPLVVPSRPAPPPPTVSSLYL [ADAM15]”: the thermal stability score in the data set on HeLa Kyoto [1] (setting [5]) was determined as 0.908; in the data set on HeLa Kyoto [1] (cell cycle stage: mitosis), 2.18. Besides, the “solubility in G1/S (log2)” value in the data set on HeLa Kyoto [2] was found to be 0.293. Besides, the melting temperature with HeLa Kyoto [3] (cell cycle stage: G1/S) was found to be 54.2 °C; in the data set on HeLa Kyoto [3] (cell cycle stage: mitosis), 55.4 °C. For the same sequence, the “solubility change mitosis (log2)” value in the data set on HeLa Kyoto [4] is -0.0652.

“MRLRRLALFPGVALLLAAARLAAASDVLELTDDNFESRISDTGSAGLMLVEFFAPWCGHCKRLAPEYEAAATRLKGIVPLAKVDCTANTNTCNKYGVSGYPTLKIFRDGEEAGAYDGPRTADGIVSHLKKQAGPASVPLRTEEEFKKFISDKDASIVGFFDDSFSEAHSEFLKAASNLRDNYRFAHTNVESLVNEYDDNGEGIILFRPSHLTNKFEDKTVAYTEQKMTSGKIKKFIQENIFGICPHMTEDNKDLIQGKDLLIAYYDVDYEKNAKGSNYWRNRVMMVAKKFLDAGHKLNFAVASRKTFSHELSDFGLESTAGEIPVVAIRTAKGEKFVMQEEFSRDGKALERFLQDYFDGNLKRYLKSEPIPESNDGPVKVVVAENFDEIVNNENKDVLIEFYAPWCGHCKNLEPKYKELGEKLSKDPNIVIAKMDATANDVPSPYEVRGFPTIYFSPANKKLNPKKYEGGRELSDFISYLQREATNPPVIQEEKPKKKKKAQEDL [PDIA3]”: the thermal stability score stood at 4.82 in the data set with HeLa Kyoto [1] (setting [5]) and 4.63 with HeLa Kyoto [1] (cell cycle stage: mitosis). Moreover, the “solubility in G1/S (log2)” value in the data set on HeLa Kyoto [2] worked out at 0.299. The melting temperature was found to be 53.3 °C with HeLa Kyoto [3] (cell cycle stage: G1/S) and 53.7 °C in the data set on HeLa Kyoto [3] (cell cycle stage: mitosis). Moreover, the “solubility change mitosis (log2)” value in the data set with HeLa Kyoto [4] is 0.000907.

The record behind these values is the supplement of paper PMC5998384.
